Among the data in patent publication US20230227508A1, “SPLIT INTEIN-BASED SELECTION FOR PEPTIDE BINDERS” (priority 2020, published 2023) are difference in output with against without bait and peptide when σN-NpuN was fully induced and the NpuC-σC fragment uninduced values, retold here.

Bounds are passed on as bounds.

This experiment deals with σN-NpuN-Mdm2* bait fusion (residues 17-124 of Mdm2) (UniProt Q00987). Briefly: cell-based or functional assay.
Chain of σN-NpuN-Mdm2* bait fusion (residues 17-124 of Mdm2) (Q00987 other isoform, or with tags, fused parts or gaps limits assumed): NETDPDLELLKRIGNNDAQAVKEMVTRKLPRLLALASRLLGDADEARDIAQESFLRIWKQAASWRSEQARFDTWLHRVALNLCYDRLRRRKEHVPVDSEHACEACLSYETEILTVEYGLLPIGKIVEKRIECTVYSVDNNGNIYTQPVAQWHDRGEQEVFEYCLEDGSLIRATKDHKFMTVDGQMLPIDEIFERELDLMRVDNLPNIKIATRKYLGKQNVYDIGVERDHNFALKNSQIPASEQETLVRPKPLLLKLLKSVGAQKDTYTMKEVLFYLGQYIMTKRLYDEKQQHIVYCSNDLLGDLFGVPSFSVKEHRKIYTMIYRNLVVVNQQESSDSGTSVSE

“PMI-NpuC-σC peptide fusion (PMI, high affinity variant of residues 15-29 of p53)” displayed a difference in output with against without bait and peptide when σN-NpuN was fully induced and the NpuC-σC fragment uninduced of over 200 fold.
